For the experiment, the target named is T1, short mouse DNGR-1 ECD (extracellular domain of the short isoform of mouse DNGR-1) (mouse), Q8BRU4.
T1 chain: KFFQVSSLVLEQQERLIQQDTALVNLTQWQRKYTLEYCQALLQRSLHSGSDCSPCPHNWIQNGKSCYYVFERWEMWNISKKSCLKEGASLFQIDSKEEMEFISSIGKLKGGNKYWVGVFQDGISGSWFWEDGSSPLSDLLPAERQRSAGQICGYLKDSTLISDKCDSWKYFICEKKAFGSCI
Briefly: non-reducing SDS-PAGE and Western blot; supernatants of 293F cells with FLAG-tagged ECD proteins, Laemmli buffer without reducing agent, HRP-conjugated anti-FLAG detection. The following applies: remark: other sources report otherwise. Background: In western blotting, separated proteins are transferred to a membrane and probed.

Consider one molecule from PMC5109244.

A word on the stoichiometry N: it is a count of units in the complex or per binding partner.

B1: short mouse DNGR-1 ECD (extracellular domain of the short isoform of mouse DNGR-1), Q8BRU4 57-238 (domain or fragment)
chain: KFFQVSSLVLEQQERLIQQDTALVNLTQWQRKYTLEYCQALLQRSLHSGSDCSPCPHNWIQNGKSCYYVFERWEMWNISKKSCLKEGASLFQIDSKEEMEFISSIGKLKGGNKYWVGVFQDGISGSWFWEDGSSPLSDLLPAERQRSAGQICGYLKDSTLISDKCDSWKYFICEKKAFGSCI
modifications: here or on the partner: glycosylated (mobility augmented by PNGase F); glycosylated (mobility augmented by PNGase F)
Molecule B1 returned a stoichiometry N of 2.
